According to PMC5757173:

Columns and labels:
[1] = target: FITC (fluorescein isothiocyanate)-labeled RAR (RARΔAB, His-tag); test: fluorescence polarisation; fluorescence anisotropy; FEZ1 (1 nM to 5000 nM) titrated into 50 nM FITC-labeled RAR; 20 mM Tris pH 8.0, 50 mM NaCl, 2 mM EDTA; 10 °C; absence of all-trans retinoic acid
[2] = target: FITC (fluorescein isothiocyanate)-labeled RAR (RARΔAB, His-tag); test: fluorescence polarisation; fluorescence anisotropy; FEZ1 (1 nM to 5000 nM) titrated into 50 nM FITC-labeled RAR; 20 mM Tris pH 8.0, 50 mM NaCl, 2 mM EDTA; 10 °C; presence of all-trans retinoic acid (AT)

- Kd [1]: 3.4 µM
- Kd [2]: 3.8 µM
B1: Fasciculation and elongation zeta-1 (1-392) protein fused to an N-terminal 6xHis-tag (natural protein)
chain: MEAPLVSLDEEFEDLRPSCSEDPEEKPQCFYGSSPHHLEDPSLSELENFSSEIISFKSMEDLVNEFDEKLNVCFRNYNAKTENLAPVKNQLQIQEEEETLQDEEVWDALTDNYIPSLSEDWRDPNIEALNGNCSDTEIHEKEEEEFNEKSENDSGINEEPLLTADQVIEEIEEMMQNSPDPEEEEEVLEEEDGGETSSQADSVLLQEMQALTQTFNNNWSYEGLRHMSGSELTELLDQVEGAIRDFSEELVQQLARRDELEFEKEVKNSFITVLIEVQNKQKEQRELMKKRRKEKGLSLQSSRIEKGNQMPLKRFSMEGISNILQSGIRQTFGSSGTDKQYLNTVIPYEKKASPPSVEDLQMLTNILFAMKEDNEKVPTLLTDYILKVLCPT
